In the DeepSol protein solubility set:

Assay: soluble on expression in E. coli; label from the status in PepcDB or PDB records
With “MGSDKIHHHHHHMERNEMLKKVEAAMPNARFKHTLGVEKAAVELAEHYHMDVEKARITALLHDYAKYYDDDKARKIIEDEGYDPRLLSFHRSLWHAPVGAYLAEKEFGITDTEILEAIRLHTTGSATMSDFDKLIYLADYTEQGRTFPGVYKARRLALKSLNEAMLFALSNTITHLVKKQQLVFPDTLDAYNYFVNLNLEGDY” the “soluble on expression in E. coli” value was “not soluble”.
With “MPLNRNHSELRSGKVNLKNGDPFTIALFGVDSDEKRKQQGGGERSDTIMVLSINPKEKKTELVSIPRDTKAEIAGRGTEEKINHAYAYGGPNMAVKTIEKLMNVPIDHYATIDMDGLHDMIDTLGGVDVVSNSTFTMGANHFVKGEKTHVDGDAAMDFIRSRKEDGAGGDFGRQERQQLILEAMADKMTSASSITHFNTLMNQIQKNVKTDLKLGDLNTIRTKYKDANDQVNRHQLEGEGGIQNDGLYYFIPSDASKNENTQLLRDNLNLLEHHHHHH” the “soluble on expression in E. coli” value was “soluble”.
For “GASCSGGDKSKAPVVSTADIENAAEVIKYYNTSLGVLKDMVKEKDVNAVLDYMEQKGKTPALSAIVPPAVVSKDSAIVLNPGNCFNEETRRNLKQNYTGLFQARTEFYANFDTYLSYLKKKDVTNAKKLLDVNYQLSTQMSEYKQNIFDILSPFTEQAELVLLVDNPLKAQIMSVRKMSSTMQSILNLYARKHRMDGPRIDLKVAELTKQLDAAKKLPVVNGHEGEMKSYQAFLSQVETFIKQVKKVREKGEYSDADYDMLTSAFETSII”, the “soluble on expression in E. coli” value was “soluble”.
With “MSLKASELKKGFAIISNGKTLLIKDIEVTTPGGRGGSKIYKLRCTDLNTGARVDERYKSDDVLDTVEMNKRPISFSYIDGDEYVFMNNDDYTPYNFKKDEIEDELLFITEEIQGMSVVLVDGEAVAIELPSSVEMVIEETDPSIKGASASSRTKPARMPTGLVVQVPEYIATGDRIVINTAERKFMNRAEGHHHHHH” the “soluble on expression in E. coli” value was “soluble”.
In the case of “MGSDKIHHHHHHMKIERLDKYIWKIPKEGDMKVDAIIFTDAESVNDPQFREAMKQLMNVATLPGIVKYALAMPDIHWGYGFPIGGVAAFDVKEGIISPGGVGFDINCGVRLMKTDLTYEDVKDRMRSLVEAIYEFVPAGVGSTGDIVLGKKGLRKVLVEGAEWAVKSGYGLEEDLERIEDGGKIHPADPSYVSEEAFERGSDELGTLGAGNHFVEVQMVQEIYDEELAEFFGLEIGTITVMIHSGSRGFGHQVATDYIRLMRDNLKEHNKNLPDKQLINAPFEHPLGQAYYSAMNCAANYAFANREILGHLVRKAFWKVFGRDTRVDLIYDVAHNIAKVEEYEVDGKRRKLVVHRKGATRSLGPGSEKVPSIYREVGQPVIIPGDMGTASYLLVGTKKAEEKTFGSTAHGAGRVLGRSAALKKLDYREVLDELAEKNIVVMSKSKKTLVEEAPEVYKDVDRVVQIVHEIGISRKVARMIPLGVVKG”, the “soluble on expression in E. coli” value is reported as “not soluble”.
With “MSLAGHQAMHYSRILPNIWLGSCPRQVEHVTIKLKHELGITAVMNFQTEWDIVQNSSGCNRYPEPMTPDTMIKLYREEGLAYIWMPTPDMSTEGRVQMLPQAVCLLHALLEKGHIVYVHCNAGVGRSTAAVCGWLQYVMGWNLRKVQYFLMAKRPAVYIDEEALARAQEDFFQKFGKVRSEGHHHHHH” the “soluble on expression in E. coli” value was “soluble”.
With “VSMDELDPHVARALTLAARFQSALDGTLNQMNNGSFRATDEAETVEVTINGHQWLTGLRIEDGLLKKLGAEAVAQRVNEALHNAQAAASAYNDAAGEQLTAALSAMSRAMNEGMA” the “soluble on expression in E. coli” value was “soluble”.
With “MPDGGFKVEVEALRRYRDTLEDFKSQADTFSDLVDRADVGDESWGLVGLATKSSYTEALGQLRDLLDRMKQGLTNTGEKFTKAAELYASNDDQGAIQLGNYEIEVDKVDEVRPAGA” the “soluble on expression in E. coli” value was “not soluble”.
With “MSLKLWENGTFYQMTAEGEQVSAVLTKNGQIHAVGEVADLKKQYATEIDETIDLEGKVVFPGFVDAHIHLLWYGQALERLNLNQTTTKKEALALILERTKQLASEEWLFVEGYDENKWSDEQTLISLVDLDGVSTTNPILVRRIDYHSVSINSALKAHIENFSENGFDGGGEIVRDKAGNFTGILRDNATTLAIDAFPAATPAELNAWLKIAITDLWSKGITGAHSEDLHYFTGFESTFAAFRNTVGANRLPFRAHLLIHHAELANFSTSKESFMSGDKFLELGAMKIFYDGTVGSRTALMSAGYADNPNEKGLQIHSDEAFEDLVQSARKAGLPVAIHILGDQAFANVIRTLRANPPKEGQYDRLIHTPWLTKELIAEAEGLPILFDVQPQFMASDLPWAIDVLGENHPPLAFAWNSLLRAGFPLAGGSDAPIEVPNPFWGIHAAVTRTANADLNGVKYWPEESLTVYEAIELYTKGAAFASYKTTSRGQIAPGFVADFTILAEDPFLIKPANLRHLEVMMTVVNEQVVYKKEGHHHHHH” the “soluble on expression in E. coli” value was “soluble”.
With “MPPKGGGAGSKKQQGGKKCKDDEADFDAQLAKALQEVQVSKDKQGGDANKKAQKGKQRTSKQESNGEANDNNDASDPKVVSTADHPDNPYPQVAEGMKRQTWPEPTIPVSQQFARGNFPVGIICEHPGEVNAYRYSSEEKRAMEHATEEQVQDLRCAAEVHRQVRRYAQSFIKPGISLLSMTDRIEKKLEELIEKDGLNRGQAFPTGCSLNHVAAHYTPNTGDKCVLMYDDVMKVDFGTQINGRIIDCAWTVAFKDEYEPLLTAVKEATYEGVKQAGIDVRLCDVGAAIQEVMESYEVELNGKVYPVKSIRNLSGHTIAPYVIHGGKSVPIVRGGEATRMEEGELFAIETFGSTGRGFVQEDMECSHYMMVPGGEKTQVRSDKAQQLLRHIHKTYNTLAFARKWLDRDGHDRHLLNLNQLVEAGAVNKYPPLCDIRGCYTAQLEHTLILKPTAKEILSKGDDY” the “soluble on expression in E. coli” value was “soluble”.
In the case of “MCMHLSSPALPIGGFSYSQGLEAAIELGLVHDEASTLAWIESQLVTVMARAEAPLWLLFEAWRAGDDAAAHGWNQWFHASRETRELRQETEQMGRSLARLAQELGWGTAATRAAVAALRPATLPAVHACACAMWALPREAGLGAYVFSWLENQVAAAIKGVPLGQMAGQRMLERLRAGLPAVLADARARAGATPPRLDTFAPQYALVSARHETQFSRLFRSAAALEHHHHHH”, the “soluble on expression in E. coli” value is reported as “not soluble”.
With “AIAFKRKTAWFSDSVEKEVISFWVSEGGDISSWKTAGYLFSDDASSEDTKRIYGSEDYVKNRATVFHSSFLLACQPRQSVTSVPIGHYVLPPDFVQNEMKAIIGRFIWEKDEQVICEEQINPEVPKDILSGETEDHALRERSSQDDYQTVTSQSKVCSCCEMRQYPVNNMISGYVHIDQMRKYSGELKDFLPSLHGHDVSRSNDPTPPFHRKAV” the “soluble on expression in E. coli” value was “soluble”.
With “SDFANLSSTNKELSPQYNWVACGILEGGLKAAGVLEEGQYNRELAEAIAAKGEGFWTTQFPQIGDWNEDQAAALADRAQTCGLVKADTYLSELSSNFSS” the “soluble on expression in E. coli” value was “soluble”.
In the case of “MKTITLYLDPASLPALNQLMDFTQNNEDKTHPRIFGLSRFKIPDNIITQYQNIHFVELKDNRPTEALFTILDQYPGNIELNIHLNIAHSVQLIRPILAYRFKHLDRVSIQQLNLYDDGSMEYVDLEKEENKDISAEIKQAEKQLSHYLLTGKIKFDNPTIARYVWQSAFPVKYHFLSTDYFEKAEFLQPLKEYLAENYQKMDWTAYQQLTPEQQAFYLTLVGFNDEVKQSLEVQQAKFIFTGTTTWEGNTEVREYYAQQQLNLLNHFTQAEGDLFIGDHYKIYFKGHPRGGEINDIILNNAKNITNIPANISFEVLMMTGLLPDKVGGVASSLYFSLPKEKISHIIFTSNKQVKSKEDALNNPYVKVMRRLGIIDESQVIFWDSLKELGGG”, the “soluble on expression in E. coli” value is reported as “soluble”.
With “MGSDKIHHHHHHMMAQFEYSTLAHPQDIQQLEHILEQCFISALGGEEAYINMIGVENFRIIRRLEQVAGGLATLDMGQWWGGQRVPMTGIAVVGIAPEYRGSGAAIALMQHTLKELYDRGIAISALYPAVQSLYRKVGYEQGGSWCIWEIATQNIQVREQPLPLELVASINHEVFHELYQQQARQTHGYLDRHPAIWERIIQPNDKEIVYTYLIGTKDQPQGYIIFTQERTNNGEILFVKDWVLTTVAAAQTFWSFLASHRSQIQQVRWKSSAIDSLTLLLPEQTAKIQTTSRWLLRIIDVVKALELRGYPPGIQAELHLEIQDNLLTENNGKFILSVANGRGEVTKGGKGELQLDIRELAPLYTSLFTPYHLQIAGKLNGTETAILTATQIFAGASPWMADFF” the “soluble on expression in E. coli” value was “not soluble”.
